We go through five proteins from PMC9765476, “Malic Enzyme, not Malate Dehydrogenase, Mainly Oxidizes Malate That Originates from the Tricarboxylic Acid Cycle in Cyanobacteria” (mBio, 2022).

Holding throughout (test): purified protein
Substrate in series [1]: O=C(O)C[C@H](O)C(=O)O
The note with it: malate oxidation.

Substrate in series [2]: NC(=O)C1=CN([C@@H]2O[C@H](COP(=O)(O)OP(=O)(O)OC[C@H]3O[C@@H](n4cnc5c(N)ncnc54)[C@H](O)[C@@H]3O)[C@@H](O)[C@H]2O)C=CC1
The class given is biochemical, Synechocystis sp. PCC 6803. The note with it: 0.5 mM oxaloacetate, pH 8.0, 50°C, reductive reaction, varied: cofactor.

Substrate in series [3]: NC(=O)c1ccc[n+]([C@@H]2O[C@H](COP(=O)(O)OP(=O)(O)OC[C@H]3O[C@@H](n4cnc5c(N)ncnc54)[C@H](O)[C@@H]3O)[C@@H](O)[C@H]2O)c1
The class given is biochemical, Synechocystis sp. PCC 6803. The note with it: 4 mM malate, pH 8.0, 50°C, malate oxidation, varied: cofactor.

Substrate in series [4]: O=C(O)CC(=O)C(=O)O
It counts as biochemical, Synechocystis sp. PCC 6803. The following applies: 0.1 mM NADH, pH 8.0, 50°C, reductive reaction.

Substrate in series [5]: NC(=O)C1=CN([C@@H]2O[C@H](COP(=O)(O)OP(=O)(O)OC[C@H]3O[C@@H](n4cnc5c(N)ncnc54)[C@H](O)[C@@H]3O)[C@@H](O)[C@H]2O)C=CC1
The class given is biochemical, Nostoc sp. PCC 7120 = FACHB-418. The following applies: 0.1 mM oxaloacetate, pH 9.0, 50°C, reductive reaction, varied: cofactor.

Substrate in series [6]: NC(=O)c1ccc[n+]([C@@H]2O[C@H](COP(=O)(O)OP(=O)(O)OC[C@H]3O[C@@H](n4cnc5c(N)ncnc54)[C@H](O)[C@@H]3O)[C@@H](O)[C@H]2O)c1
It counts as biochemical, Nostoc sp. PCC 7120 = FACHB-418. The following applies: 5 mM malate, pH 9.0, 50°C, malate oxidation, varied: cofactor.

Substrate in series [7]: O=C(O)CC(=O)C(=O)O
The class given is biochemical, Nostoc sp. PCC 7120 = FACHB-418. The note with it: 0.1 mM NADH, pH 9.0, 50°C, reductive reaction.

Substrate in series [8]: NC(=O)C1=CN([C@@H]2O[C@H](COP(=O)(O)OP(=O)(O)OC[C@H]3O[C@@H](n4cnc5c(N)ncnc54)[C@H](O)[C@@H]3O)[C@@H](O)[C@H]2O)C=CC1
The class given is biochemical, Limnospira platensis. The note with it: 0.5 mM oxaloacetate, pH 8.5, 50°C, reductive reaction, varied: cofactor.

Substrate in series [9]: NC(=O)c1ccc[n+]([C@@H]2O[C@H](COP(=O)(O)OP(=O)(O)OC[C@H]3O[C@@H](n4cnc5c(N)ncnc54)[C@H](O)[C@@H]3O)[C@@H](O)[C@H]2O)c1
The class given is biochemical, Limnospira platensis. The following applies: 1 mM malate, pH 8.5, 50°C, malate oxidation, varied: cofactor.

Substrate in series [10]: O=C(O)CC(=O)C(=O)O
It counts as biochemical, Limnospira platensis. The following applies: 0.1 mM NADH, pH 8.5, 50°C, reductive reaction.

Substrate in series [11]: CC(=O)C(=O)O
The class given is biochemical, Nostoc sp. PCC 7120 = FACHB-418. The note with it: 0.1 mM NADPH, 100 mM NH4Cl, 0.1 mM MnCl2, 50 mM KHCO3, pH 8.8, 52°C, reductive reaction.

Substrate in series [12]: NC(=O)C1=CN([C@@H]2O[C@H](COP(=O)(O)OP(=O)(O)OC[C@H]3O[C@@H](n4cnc5c(N)ncnc54)[C@H](OP(=O)(O)O)[C@@H]3O)[C@@H](O)[C@H]2O)C=CC1
It counts as biochemical, Nostoc sp. PCC 7120 = FACHB-418. The following applies: 30 mM pyruvate, 100 mM NH4Cl, 0.1 mM MnCl2, 50 mM KHCO3, pH 8.8, 52°C, reductive reaction, varied: cofactor.

Substrate in series [13]: NC(=O)c1ccc[n+]([C@@H]2O[C@H](COP(=O)(O)OP(=O)(O)OC[C@H]3O[C@@H](n4cnc5c(N)ncnc54)[C@H](OP(=O)(O)O)[C@@H]3O)[C@@H](O)[C@H]2O)c1
It counts as biochemical, Nostoc sp. PCC 7120 = FACHB-418. The following applies: 3 mM malate, 100 mM NH4Cl, 0.1 mM MnCl2, pH 8.8, 52°C, malate oxidation, varied: cofactor.

Substrate in series [14]: NC(=O)c1ccc[n+]([C@@H]2O[C@H](COP(=O)(O)OP(=O)(O)OC[C@H]3O[C@@H](n4cnc5c(N)ncnc54)[C@H](OP(=O)(O)O)[C@@H]3O)[C@@H](O)[C@H]2O)c1
It counts as biochemical, Synechocystis sp. PCC 6803. The note with it: 3 mM malate, 100 mM NH4Cl, 0.5 mM MnCl2, pH 8.3, 50°C, malate oxidation, varied: cofactor.

The mark [15] stands for this setting: 8 mM NAD+, pH 8.0, 50°C, pH 8.0, 50.0 °C.
Where [16] appears, read: 8 mM NAD+, pH 9.0, 50°C, pH 9.0, 50.0 °C.
[17] abbreviates: 8 mM NAD+, pH 8.5, 50°C, pH 8.5, 50.0 °C.
The mark [18] stands for this setting: 0.5 mM NADP+, 100 mM NH4Cl, 0.1 mM MnCl2, pH 8.8, 52°C, pH 8.8, 52.0 °C.
Setting [19] is: 0.5 mM NADP+, 100 mM NH4Cl, 0.5 mM MnCl2, pH 8.3, 50°C, pH 8.3, 50.0 °C.

B1: SyMDH (Synechocystis sp. PCC 6803 substr. Kazusa) (protein)
chain: MNILEYAPIACQSWQVTVVGAGNVGRTLAQRLVQQNVANVVLLDIVPGLPQGIALDLMAAQSVEEYDSKIIGTNEYEATAGSDVVVITAGLPRRPGMSRDDLLGKNANIVAQGAREALRYSPNAILIVVTNPLDVMTYLAWKVTGLPSQRVMGMAGVLDSARLKAFIAMKLGACPSDINTLVLGGHGDLMLPLPRYCTVSGVPITELIPPQTIEELVERTRNGGAEIAALLQTGTAYYAPASSAAVMVESILRNQSRILPAATYLDGAYGLKDIFLGVPCRLGCRGVEDILEVQLTPEEKAALHLSAEAVRLNIDVALAMVSDG
notes: full length, His-tagged (pQE80L), E. coli BL21(DE3), synthesized gene
As for B1, the K0.5 in [1] (setting [15]) is recorded as 1.61 ± 0.37 mM; in series [2], 0.018 ± 0.002 mM; in series [3], 1.34 ± 0.30 mM; in [4], 0.11 ± 0.002 mM. Also, the turnover number (kcat) (as a rule, the maximal rate divided by the concentration of active sites) in series [1] (setting [15]) is 1 s⁻¹; in series [2] it was 6.6 ± 0.5 s⁻¹; in series [3], 1.8 ± 0.1 s⁻¹; in series [4] it was 4 ± 0.04 s⁻¹. The catalytic efficiency (kcat/Km) (as a rule, the second-order rate constant that governs catalysis at low substrate concentration) in series [1] (setting [15]) was determined as 640 M⁻¹ s⁻¹; in series [2] it was 364000 ± 19000 M⁻¹ s⁻¹; in series [3] it was 1400 ± 200 M⁻¹ s⁻¹; in series [4], 36000 ± 1000 M⁻¹ s⁻¹.

B2: NoMDH (Nostoc sp. PCC 7120 = FACHB-418) (protein)
chain: MFSSPDSPILHCLPRVAIIGAGRVGSTLAQRIAEKNLADVVLLDIVEGIPQGLALDLLEARGIELHNRQIIGTNNYADTSGSQIVVITAGFPRKPGMSRDDLLRTNAKIVIEAAKQAIAYSPYAIFIVVTNPLDVMTYLAWEATGLPRNRIMGMAGVLDSARFETFIALELGVLPADVKAMVLGSHGDLMVPLSRYATVNGIPITQLLDAVTIERLVERTRNGGAEIVELMQTGGAFFAPASATSLMVESILLNQSRLLPVSIYLQGEYDLKDVVIGVPCRLGLNGIESVIELNLSDSEREALHISAKSVQKNIERWRSLQNS
notes: full length, GST-tagged (pGEX6P-1), tag kept, E. coli BL21(DE3), 10°C expression
Regarding B2, the K0.5 in series [1] (setting [16]) came out at 1.88 ± 0.56 mM; in series [5], 0.0093 ± 0.0001 mM; in series [6], 8.45 ± 1.95 mM; in series [7] it was 0.026 ± 0.002 mM. Moreover, the kcat in series [1] (setting [16]) stood at 3.5 s⁻¹; in [5] it was 1.3 ± 0.1 s⁻¹; in series [6] it was 6.3 ± 0.5 s⁻¹; in series [7], 1.1 ± 0.03 s⁻¹. The kcat/Km is 2000 M⁻¹ s⁻¹ in [1] (setting [16]), 142000 ± 8000 M⁻¹ s⁻¹ in [5], 770 ± 100 M⁻¹ s⁻¹ in [6] and 42000 ± 2000 M⁻¹ s⁻¹ in series [7].

B3: ArMDH (Limnospira platensis NIES-46) (protein)
chain: MQMASSMFFPPSCHPTQVSIIGAGKVGGTLAQRIAESNVAHVVLLDVVEGLPQGVALDLMQAGSVEGHDRKILGTNDYADTAGSDVVVITAGRPRTPGMNRNDLIETNAPIVARAVTNAIASSPNAVIIIVTNPLDVMTYIAWQVSQIEPFRIMGMAGVLDSARFQAFIATELNVSVADVNATVMGSHGDLMVPLPRYSTVNGIPITELMDTETINRLIARTRNGGAEIVGLLKTGGAYYAPASSVRTMVESILLNRRRLLPTSAYLKGEYGMKDIFLGVPCWLGCRGVEAVLELNLTDNEREALNSCAQSVREGIEKADAVLAATAAV
notes: full length, GST-tagged (pGEX6P-1), tag kept, E. coli BL21(DE3)
For the protein B3, the K0.5 is 0.034 ± 0.002 mM in [1] (setting [17]), 0.0085 ± 0.0025 mM in [8], 0.30 ± 0.02 mM in series [9] and 0.041 ± 0.001 mM in [10]. The kcat in series [1] (setting [17]) stood at 0.25 s⁻¹; in [8] it was 1.7 ± 0.1 s⁻¹; in series [9], 0.5 ± 0.01 s⁻¹; in [10], 1.4 ± 0.03 s⁻¹. For the same protein, the kcat/Km in series [1] (setting [17]) is 7300 M⁻¹ s⁻¹; in [8], 214000 ± 50000 M⁻¹ s⁻¹; in [9], 1700 ± 100 M⁻¹ s⁻¹; in [10], 34000 ± 400 M⁻¹ s⁻¹.

B4: NoME (Nostoc sp. PCC 7120 = FACHB-418) (protein)
chain: MADLTPNSSFSVTLRLQIPNRVGMLASITQAIASSGGNLGQIDLIEQTRQVSLRDLTVDAASTEHAETIVQAVKAIPDIKLVSVYDRTFNLHRGGKISITSRIPLKSVSDLAMAYTPGVGRVCTAIAQDPSQVYNLTIKQNTVAIVTDGSAVLGLGNLGPHAALPVMEGKAMLFKEFAGLDAFPICLATQDTEEIIQAVKNIAPVFGGVNLEDIAAPRCFEIEKRLRDELDIPVFHDDQHGTAIVTLAALFNSLKLVQKSLADIRIVINGAGAAGVAIARLLRKAGAEKIWMCDSKGIISTTRTDLNEEKQEFAVKAQGTLAGAVQGADVFIGVSAPGVLTPEMVKSMAKDAIVFAMANPIPEIQPELISKDVAVIATGRSDYPNQINNVLAFPGVFRGALDCRAQTITTTMYLEAASAIASLVNPSDLSREHIIPSVFDERVVTAVAAAVQRAAREEGIARG
notes: as for B3
With B4, the K0.5 in series [1] (setting [18]) is listed as 0.41 ± 0.02 mM; in [11], 6.55 ± 0.38 mM; in series [12], 0.0074 ± 0.001 mM; in [13], 0.014 ± 0.004 mM. The catalytic constant (kcat) in series [1] (setting [18]) amounted to 30.3 s⁻¹; in series [11] it was 0.79 ± 0.03 s⁻¹; in series [12], 0.85 ± 0.03 s⁻¹; in series [13], 33.4 ± 3.2 s⁻¹. In addition, the specificity constant (kcat/Km) in series [1] (setting [18]) was 75000 M⁻¹ s⁻¹; in series [11], 120 ± 3 M⁻¹ s⁻¹; in [12] it was 116000 ± 10000 M⁻¹ s⁻¹; in [13], 2.53e+06 ± 436000 M⁻¹ s⁻¹.

B5: SyME (Synechocystis sp. PCC 6803 substr. Kazusa) (protein)
chain: MVSLTPNPSYSVSLLLELPNHAGTLASVTQAIADAGGSFGQISLIESNLKLTRREIAVDASSSEHAEKIIGAVKALDNVKLLKVSDRTFDLHRQGKISVVSRIPLTSQSDLAMAYTPGVGRICRAIAEDPEKVYSLTIKSNTVAVVTDGSAVLGLGNLGPEAALPVMEGKAMLFKEFAQLDAFPICLDTQDTEEIIRTVKAIAPVFGGVNLEDIAAPRCFEIEARLKKELNIPVFHDDQHGTAIVTLAALLNALKFVGKAMAAVRIVINGAGAAGLAIAELLKESGATDIWICDSKGIVGKHRTDLNSKKQSFAVDAEGTLADAMAGADVFLGVSAPGVVTKEMVQSMAKDPIVFAMANPIPEIQPELIQEDAAVIATGRSDYPNQINNVLAFPGVFRGAIDCRASIITTTMCIEAAKAIASLVHSNTLDSEHIIPSVFDNRVATTVASAVQLAARNEGVAGQ
notes: as for B1
Take B5: in series [1] (setting [19]), the K0.5 is listed as 0.46 ± 0.06 mM, the kcat amounted to 77.2 s⁻¹ and the specificity constant (kcat/Km) is 169000 M⁻¹ s⁻¹. In addition, in series [14], the K0.5 was 0.015 ± 0.001 mM, the kcat amounted to 55.7 ± 3.3 s⁻¹ and the kcat/Km was 3.689e+06 ± 23000 M⁻¹ s⁻¹.
